Data as given in patent US20210388087A1 (Chugai, published 2021).
Numbering of substitutions follows the chain as printed. Numbers in names are those of the source.

B1: H183/L072 VH A60S (antibody, name in Kabat numbering, V domains shown)
VH: QVQLVESGGGLVQPGRSLRLSCAASGFTFSNAWMHWVRQAPGKGLEWVAQIKDKGNAYAAYYSPSVKGRFTISRDDSKNSIYLQMNSLKTEDTAVYYCHYVHYASASTVLPAFGVDAWGQGTTVTVSS
VL: DIVMTQSPLSLPVTPGEPASISCQASQELVHMNRNTYLHWYQQKPGQAPRLLIYKVSNRFPGVPDRFSGSGSGTDFTLKISRVEAEDVGVYYCAQGTSVPFTFGQGTKLEIK
B2: H183/L072 VH A60V (antibody, name in Kabat numbering, V domains shown)
VH: B1 VH with S63V
VL: B1 VL
B3: H183/L072 VH D52aY (antibody, name in Kabat numbering, V domains shown)
VH: B1 VH with D53Y, S63A
VL: B1 VL
B4: H183/L072 VH D101I (antibody, name in Kabat numbering, V domains shown)
VH: B1 VH with S63A, D116I
VL: B1 VL
B5: H183/L072 VH A98I (antibody, name in Kabat numbering, V domains shown)
VH: B1 VH with S63A, A104I
VL: B1 VL
B6: H183/L072 VH A102L (antibody, name in Kabat numbering, V domains shown)
VH: B1 VH with S63A, A117L
VL: B1 VL
B7: H183/L072 VH A100I (antibody, name in Kabat numbering, V domains shown)
VH: B1 VH with S63A, A106I
VL: B1 VL
B8: H183/L072 VH A98P (antibody, name in Kabat numbering, V domains shown)
VH: B1 VH with S63A, A104P
VL: B1 VL
B9: H183/L072 VH F27E (antibody, name in Kabat numbering, V domains shown)
VH: B1 VH with F27E, S63A
VL: B1 VL
B10: H183/L072 VH A100fL (antibody, name in Kabat numbering, V domains shown)
VH: B1 VH with S63A, A112L
VL: B1 VL
B11: H183/L072 VH D101A (antibody, name in Kabat numbering, V domains shown)
VH: B1 VH with S63A, D116A
VL: B1 VL
B12: H183/L072 VH A100fP (antibody, name in Kabat numbering, V domains shown)
VH: B1 VH with S63A, A112P
VL: B1 VL
B13: H183/L072 VH A102M (antibody, name in Kabat numbering, V domains shown)
VH: B1 VH with S63A, A117M
VL: B1 VL
B14: H183/L072 VH F27H (antibody, name in Kabat numbering, V domains shown)
VH: B1 VH with F27H, S63A
VL: B1 VL
B15: H183/L072 VH F27G (antibody, name in Kabat numbering, V domains shown)
VH: B1 VH with F27G, S63A
VL: B1 VL
B16: H183/L072 VH F27N (antibody, name in Kabat numbering, V domains shown)
VH: B1 VH with F27N, S63A
VL: B1 VL
B17: H183/L072 VH A100P (antibody, name in Kabat numbering, V domains shown)
VH: B1 VH with S63A, A106P
VL: B1 VL
B18: H183/L072 VH A98M (antibody, name in Kabat numbering, V domains shown)
VH: B1 VH with S63A, A104M
VL: B1 VL
B19: H183/L072 VH A100fI (antibody, name in Kabat numbering, V domains shown)
VH: B1 VH with S63A, A112I
VL: B1 VL
B20: H183/L072 VH A98L (antibody, name in Kabat numbering, V domains shown)
VH: B1 VH with S63A, A104L
VL: B1 VL
B21: H183/L072 VH A60W (antibody, name in Kabat numbering, V domains shown)
VH: B1 VH with S63W
VL: B1 VL
B22: H183/L072 VH D101L (antibody, name in Kabat numbering, V domains shown)
VH: B1 VH with S63A, D116L
VL: B1 VL
B23: H183/L072 VH F27K (antibody, name in Kabat numbering, V domains shown)
VH: B1 VH with F27K, S63A
VL: B1 VL
B24: H183/L072 VH A100fM (antibody, name in Kabat numbering, V domains shown)
VH: B1 VH with S63A, A112M
VL: B1 VL
B25: H183/L072 VH A102I (antibody, name in Kabat numbering, V domains shown)
VH: B1 VH with S63A, A117I
VL: B1 VL
B26: H183/L072 VH A100L (antibody, name in Kabat numbering, V domains shown)
VH: B1 VH with S63A, A106L
VL: B1 VL
B27: H183/L072 VH A60Y (antibody, name in Kabat numbering, V domains shown)
VH: B1 VH with S63Y
VL: B1 VL
B28: H183/L072 VH F27D (antibody, name in Kabat numbering, V domains shown)
VH: B1 VH with F27D, S63A
VL: B1 VL
B29: H183/L072 VH D101M (antibody, name in Kabat numbering, V domains shown)
VH: B1 VH with S63A, D116M
VL: B1 VL
B30: H183/L072 VH F27M (antibody, name in Kabat numbering, V domains shown)
VH: B1 VH with F27M, S63A
VL: B1 VL
B31: H183/L072 VH F27L (antibody, name in Kabat numbering, V domains shown)
VH: B1 VH with F27L, S63A
VL: B1 VL
B32: H183/L072 VH A100M (antibody, name in Kabat numbering, V domains shown)
VH: B1 VH with S63A, A106M
VL: B1 VL
B33: H183/L072 VH A60T (antibody, name in Kabat numbering, V domains shown)
VH: B1 VH with S63T
VL: B1 VL

These binders were tested against T1, Human CD137 ECD (human) (assay: single mutant vs template dBBDu183H).
T1 construct: also called 4-1BB
T1 sequence (chain, as listed by the source limits assumed): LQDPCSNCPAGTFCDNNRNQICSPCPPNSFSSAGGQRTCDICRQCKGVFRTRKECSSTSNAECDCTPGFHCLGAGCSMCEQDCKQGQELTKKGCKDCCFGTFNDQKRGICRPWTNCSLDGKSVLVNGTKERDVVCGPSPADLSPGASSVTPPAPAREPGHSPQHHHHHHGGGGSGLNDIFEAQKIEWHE

| Binder | fold change of affinity [fold] |
| --- | --- |
| B1 | 1 |
| B2 | 0.9 |
| B3 | 0 |
| B4 | 0 |
| B5 | 0 |
| B6 | 0.9 |
| B7 | 0 |
| B8 | 0 |
| B9 | 0.2 |
| B10 | 0 |
| B11 | 2 |
| B12 | 0.3 |
| B13 | 0 |
| B14 | 0.3 |
| B15 | 0.4 |
| B16 | 0.3 |
| B17 | 0.3 |

| Binder | fold change of affinity [fold] |
| --- | --- |
| B18 | 0 |
| B19 | 0 |
| B20 | 0 |
| B21 | 0.9 |
| B22 | 0 |
| B23 | 0.2 |
| B24 | 0 |
| B25 | 0 |
| B26 | 0 |
| B27 | 1.2 |
| B28 | 0.5 |
| B29 | 0 |
| B30 | 0.9 |
| B31 | 0.5 |
| B32 | 0.7 |
| B33 | 1.3 |
